Measured values taken from patent US12534534 (F STAR BETA, dated 2026).
One block for each binder: values may come before it.

Columns and labels:
[1] = biological target: human CD137 on DO11.10-hCD137 cells (human, UniProt Q07011 24-255); experiment: cell-based or functional assay
hCD137-mFc-Avi [2] = biological target: T1, hCD137-mFc-Avi (human, UniProt Q07011 24-186); experiment: SPR, antigens immobilised on CM5 chip, mAb^2 at 1 µM and 1 nM, binding level at end of association
T1 construct: dimer; also called human CD137-mFc-Avi; human CD137-mFc
Procedure: CD137 belongs to the tumour necrosis factor receptor superfamily (TNFRSF) of cytokine receptors (Moran et al., 2013). To analyse the specificity of the anti-CD137 Fab binding site of the five mAb² molecules, binding of the mAb² to human CD137 and five closely-related human TNFRSF members (TNFRSF1A, TNFRSF1B, GITR, NGFR and CD40) was tested using SPR.
(§1) Flow cell 1 was run as a blank immobilisation. The five FS20-22-49AA/FS30 mAb² were diluted to 1 μM and 1 nM in 1×HBS-EP buffer (GE Healthcare, product code BR100188), allowed to flow over the chip for 3 min and then allowed to dissociate for 4 minutes. A 30-second injection of 10 mM glycine pH 1.5 was used for regeneration. […] Binding levels were determined at the end of the association phase and compared.

hCD137-mFc-Avi [3] = biological target: T1, hCD137-mFc-Avi; experiment: cell-based, 100 nM hCD137-mFc-Avi with 200 nM antibody, competitor human CD137L on DO11.10 cells, GMFI normalised to G1/11D4 = 0 and G1/MOR7480.1 = 100; mean of n=2
Procedure: The cells were washed once in PBS and 100 μl/well of secondary antibody (anti-mouse Fc-488 antibody, Jackson Immuno Research, 115-546-008) diluted 1:1000 in PBS containing 2% BSA was then added and incubated for 30 mins at 4° C. in the dark. The cells were washed once with PBS and resuspended in 100 μl of PBS containing DAPI (Biotium, 40043) at 1 μg/ml. The cells were analysed using a Canto II flow cytometer (BD Bioscience). Dead cells were excluded and the fluorescence in the FITC channel (488 nm/530/30) was measured. […] The data was analysed using a one-way ANOVA test and Tukey's multiple comparisons test using GraphPad Prism.

hCD137-mFc-Avi [4] = biological target: T1, hCD137-mFc-Avi; experiment: ELISA, hCD137-mFc-Avi coated, 100 nM antibody, competitor CD137L-His; normalised to G1/11D4 = 0 and G1/MOR7480.1 = 100; mean of n=2
Procedure: The following day, plates were washed with PBST (PBS+0.05% Tween20™) and blocked with PBS+1% BSA (Sigma, A3059-500G) for 1 hour at room temperature with agitation. After blocking, the plates were washed again with PBST. A 100 nM dilution of each test antibody was prepared in PBS+1% BSA and added to the CD137-coated plates and incubated for 1 hour at room temperature with agitation. […] The plates were then washed with PBST and then incubated with anti-his secondary antibody (R&D Systems, MAB050H) at a 1 in 1000 dilution in PBS for 1 hour at room temperature with agitation. The plates were then washed with PBST and incubated with TMB detection reagent (Thermo Fisher Scientific, 002023) until the positive control wells turned blue and then the reaction was stopped with the addition of 2N H_2SO_4. Plates were read at 450 nm using the plate reader with Gen5 Software, BioTek. Absorbance values of 630 nm were subtracted from those of 450 nm (Correction). The subtracted absorbance values were plotted vs the log concentration of antibody and the resulting curves were fitted using the log (inhibitor) vs response equation in GraphPad Prism.

NGFR-Fc = biological target: T2, NGFR-Fc (human, UniProt P08138 29-250); experiment: SPR, antigen immobilised on CM5 chip
T2 construct: bought; also called NGFR (R&D Systems, 367-NR-050/CF); not shown: Fc part of the bought fusion
T2 sequence (looked up): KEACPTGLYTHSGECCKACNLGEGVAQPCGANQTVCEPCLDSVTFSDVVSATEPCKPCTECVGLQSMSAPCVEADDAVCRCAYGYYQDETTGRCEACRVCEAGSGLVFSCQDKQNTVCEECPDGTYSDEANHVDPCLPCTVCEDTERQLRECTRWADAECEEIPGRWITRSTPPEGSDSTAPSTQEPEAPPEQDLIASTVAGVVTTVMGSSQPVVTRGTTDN
Procedure: as §1
(§2) Specificity was tested against the same five human TNFRSF members closely-related to CD137 (TNFRSF1A, TNFRSF1B, GITR, NGFR and CD40) plus an additional closely-related TNFRSF member, human DR6 (DR6-Fc; R&D Systems, 144-DR-100), using SPR as described in Example 3.1.

GITR-hFc-Avi = biological target: T3, GITR-hFc-Avi (human, UniProt Q9Y5U5 26-161); experiment: SPR, antigen immobilised on CM5 chip
T3 construct: in-house produced; not shown: hFc and Avi part
T3 sequence: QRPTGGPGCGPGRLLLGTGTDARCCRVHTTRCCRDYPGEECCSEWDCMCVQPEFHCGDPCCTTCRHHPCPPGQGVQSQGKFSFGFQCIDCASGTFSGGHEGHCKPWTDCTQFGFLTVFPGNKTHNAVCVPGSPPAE
Procedure: as §1, §2

CD40-mFc = biological target: T4, CD40-mFc (human, UniProt P25942 21-193); experiment: SPR, antigen immobilised on CM5 chip
T4 construct: in-house produced; not shown: mFc part
Procedure: as §1, §2

TNFRSF1B-Fc = biological target: T5, TNFRSF1B-Fc (human, UniProt P20333 23-257); experiment: SPR, antigen immobilised on CM5 chip
T5 construct: bought; also called TNFRSF1B (R&D Systems, 726-R2-050); not shown: Fc part of the bought fusion
T5 sequence (looked up): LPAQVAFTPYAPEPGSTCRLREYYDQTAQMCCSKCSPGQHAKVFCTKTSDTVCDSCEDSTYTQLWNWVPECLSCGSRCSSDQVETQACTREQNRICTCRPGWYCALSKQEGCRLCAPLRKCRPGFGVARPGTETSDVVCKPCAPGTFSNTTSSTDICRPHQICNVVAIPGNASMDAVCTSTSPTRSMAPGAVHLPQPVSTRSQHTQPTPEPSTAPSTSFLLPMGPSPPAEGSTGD
Procedure: as §1, §2

TNFRSF1A-Fc = biological target: T6, TNFRSF1A-Fc (human, UniProt P19438 30-211, limits assumed); experiment: SPR, antigen immobilised on CM5 chip
T6 construct: bought; also called TNFRSF1A (R&D Systems, 372-RI-050/CF); not shown: Fc part of the bought fusion
T6 sequence (looked up): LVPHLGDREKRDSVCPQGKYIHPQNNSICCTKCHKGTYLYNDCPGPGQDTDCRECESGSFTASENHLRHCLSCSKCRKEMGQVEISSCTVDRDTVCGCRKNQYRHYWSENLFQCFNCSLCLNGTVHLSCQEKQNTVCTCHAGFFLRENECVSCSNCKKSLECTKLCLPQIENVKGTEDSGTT
Procedure: as §1, §2

[5] = biological target: human CD137 on primary human CD8+ T cells (human, UniProt Q07011 24-255); experiment: cell-based or functional assay

- DO11.10-hCD137 T cell activation assay EC50 (nM), crosslinked [1]: 4.4 nM
B1: FS20-22-49AA/FS30-5 variant, Methionine (100D) to I (bispecific antibody, V domains shown)
VH: EVQLLESGGGLVQPGGSLRLNCAASGFTFSSYAMSWVRQAPGKGLEWVSAISGSGGSTYYADSVKGRFTISRDNSKNTLYLQMNSLRAEDTAVYYCARSYDKYWGSSIYSGMDYWGQGTLVTVSS
VL: EIVLTQSPGTLSLSPGERATLSCRASQSVSSSYLAWYQQKPGQAPRLLIYGASSRATGIPDRFSGSGSGTDFTLTISRLEPEDFAVYYCQQYYSYYPVTFGQGTKVEIKR

- fold specificity for CD137 over TNFRSF1A, TNFRSF1B, GITR, NGFR and CD40 (hCD137-mFc-Avi [2]): ~1000 fold
- DO11.10-hCD137 T cell activation assay EC50 (nM), crosslinked [1]: 5.5 nM
B2: FS20-22-49AA/FS30-35 (bispecific antibody, human IgG1, kappa, L234A L235A, V domains shown)
VH: EVQLLESGGGLVQPGGSLRLSCAASGFTFSAYNIHWVRQAPGKGLEWVSDISPYGGATNYADSVKGRFTISRDNSKNTLYLQMNSLRAEDTAVYYCARNLYELSAYSYGMDYWGQGTLVTVSS
VL: EIVLTQSPGTLSLSPGERATLSCRASQSVSSSYLAWYQQKPGQAPRLLIYGASSRATGIPDRFSGSGSGTDFTLTISRLEPEDFAVYYCQQYYYSSPITFGQGTKVEIKR
notes: also called FS30-35 in mAb^2 format

- fold specificity for CD137 over TNFRSF1A, TNFRSF1B, GITR, NGFR and CD40 (hCD137-mFc-Avi [2]): ~1000 fold
B3: FS20-22-49AA/FS30-16 (bispecific antibody, human IgG1, kappa, L234A L235A, V domains shown)
VH: EVQLLESGGGLVQPGGSLRLSCAASGFTFSNYAMHWVRQAPGKGLEWVSTIDPTDGATNYADSVKGRFTISRDNSKNTLYLQMNSLRAEDTAVYYCARSKYYTYMQYVALDYWGQGTLVTVSS
VL: EIVLTQSPGTLSLSPGERATLSCRASQSVSSSYLAWYQQKPGQAPRLLIYGASSRATGIPDRFSGSGSGTDFTLTISRLEPEDFAVYYCQQGSRFFPITFGQGTKVEIKR
notes: also called FS30-16 in mAb^2 format

- fold specificity for CD137 over TNFRSF1A, TNFRSF1B, GITR, NGFR and CD40 (hCD137-mFc-Avi [2]): ~1000 fold
- DO11.10-hCD137 T cell activation assay EC50 (nM), crosslinked [1]: 4.8 nM
B4: FS20-22-49AA/FS30-5 (bispecific antibody, human IgG1, kappa, L234A L235A, V domains shown)
VH: EVQLLESGGGLVQPGGSLRLNCAASGFTFSSYAMSWVRQAPGKGLEWVSAISGSGGSTYYADSVKGRFTISRDNSKNTLYLQMNSLRAEDTAVYYCARSYDKYWGSSMYSGMDYWGQGTLVTVSS
VL: EIVLTQSPGTLSLSPGERATLSCRASQSVSSSYLAWYQQKPGQAPRLLIYGASSRATGIPDRFSGSGSGTDFTLTISRLEPEDFAVYYCQQYYSYYPVTFGQGTKVEIKR
notes: also called FS30-5 in mAb^2 format

- DO11.10-hCD137 T cell activation assay EC50 (nM), crosslinked [1]: 9.5 nM
B5: FS20-22-49AA/FS30-35 variant, Methionine (100F) to H (bispecific antibody, V domains shown)
VH: EVQLLESGGGLVQPGGSLRLSCAASGFTFSAYNIHWVRQAPGKGLEWVSDISPYGGATNYADSVKGRFTISRDNSKNTLYLQMNSLRAEDTAVYYCARNLYELSAYSYGHDYWGQGTLVTVSS
VL: EIVLTQSPGTLSLSPGERATLSCRASQSVSSSYLAWYQQKPGQAPRLLIYGASSRATGIPDRFSGSGSGTDFTLTISRLEPEDFAVYYCQQYYYSSPITFGQGTKVEIKR

- % CD137 ligand blocking activity (hCD137-mFc-Avi [3]): 2%
- % CD137 ligand blocking activity (hCD137-mFc-Avi [4]): -0.3%
B6: FS20-22-49AA/4420 (bispecific antibody, human IgG1, kappa, L234A L235A, V domains shown)
VH: EVKLDETGGGLVQPGRPMKLSCVASGFTFSDYWMNWVRQSPEKGLEWVAQIRNKPYNYETYYSDSVKGRFTISRDDSKSSVYLQMNNLRVEDMGIYYCTGSYYGMDYWGQGTSVTVSS
VL: DVVMTQTPLSLPVSLGDQASISCRSSQSLVHSNGNTYLRWYLQKPGQSPKVLIYKVSNRFSGVPDRFSGSGSGTDFTLKISRVEAEDLGVYFCSQSTHVPWTFGGGTKLEIKR
notes: anti-OX40 Fcab FS20-22-49AA with the Fab of anti-FITC antibody 4420; IgG1 LALA; also called negative control mAb^2

- fold specificity for CD137 over TNFRSF1A, TNFRSF1B, GITR, NGFR and CD40 (hCD137-mFc-Avi [2]): ~1000 fold
- DO11.10-hCD137 T cell activation assay EC50 (nM), crosslinked [1]: 10.2 nM
B7: FS20-22-49AA/FS30-10 (bispecific antibody, human IgG1, kappa, L234A L235A, V domains shown)
VH: EVQLLESGGGLVQPGGSLRLSCAASGFTFSSYDMSWVRQAPGKGLEWVSDIDPTGSKTDYADSVKGRFTISRDNSKNTLYLQMNSLRAEDTAVYYCARDLMVYGFDYWGQGTLVTVSS
VL: EIVLTQSPGTLSLSPGERATLSCRASQSVSSSYLAWYQQKPGQAPRLLIYGASSRATGIPDRFSGSGSGTDFTLTISRLEPEDFAVYYCQQSYSYPVTFGQGTKVEIKR
notes: also called FS30-10 in mAb^2 format

- binding result (NGFR-Fc): binds
- binding result (GITR-hFc-Avi): binds
- binding result (CD40-mFc): binds
- binding result (TNFRSF1B-Fc): binds
- binding result (TNFRSF1A-Fc): binds
B8: FS20-22-49AA/FS30-15 (bispecific antibody, human IgG1, kappa, L234A L235A, V domains shown)
VH: EVQLLESGGGLVQPGGSLRLSCAASGFTFSGSGMSWVRQAPGKGLEWVSIIYSTNGDTDYADSVKGRFTISRDNSKNTLYLQMNSLRAEDTAVYYCARDFYDIANYYAFDYWGQGTLVTVSS
VL: EIVLTQSPGTLSLSPGERATLSCRASQSVSSSYLAWYQQKPGQAPRLLIYGASSRATGIPDRFSGSGSGTDFTLTISRLEPEDFAVYYCQQAYYDPITFGQGTKVEIKR
notes: also called FS30-15 in mAb^2 format

- Activity of non-crosslinked mAbs at 100 nM (hIL-2 pg/ml) [5]: 532 pg/mL
- EC50 (nM), hIL-2 release, primary human CD8+ T cell activation assay, crosslinked mAb [5]: 1 nM
- Emax (hIL-2 pg/ml), crosslinked mAb [5]: 1510 pg/mL
B9: G1AA/FS30-6 (antibody, human IgG1, kappa, L234A L235A, V domains shown)
VH: EVQLLESGGGLVQPGGSLRLSCAASGFTVSYYSISWVRQAPGKGLEWVSDIYSYYGYTDYADSVKGRFTISRDNSKNTLYLQMNSLRAEDTAVYYCARVSYGGQAFDYWGQGTLVTVSS
VL: EIVLTQSPGTLSLSPGERATLSCRASQSVSSSYLAWYQQKPGQAPRLLIYGASSRATGIPDRFSGSGSGTDFTLTISRLEPEDFAVYYCQQYDDYPVTFGQGTKVEIKR
